The target of assay [1] is TAT-CaM (HIV; human). Description: BLI, dissociation upon exposure to EDTA. A general note: In BLI a coated tip is dipped into the sample, and binding shifts an interference pattern.
Assay [2] addresses TAT-CaM (HIV; human). Description: BLI, dissociation after moving sensors to buffer with 10 mM EDTA (1 µM sample).
For assay [3], the target named is TAT-CaM (HIV; human). Briefly: BLI (Octet QK), biotinylated TAT-CaM on streptavidin sensors, cargo as analyte, global 1:1 association-then-dissociation fit.
In assay [4] the target is CBS-myoglobin. Briefly: BLI, biotinylated CPP-adapter on streptavidin sensors, CBS-myoglobin as analyte (1 µM to 63 nM), one-state association-then-dissociation fit.
In assay [5] the target is CBS-myoglobin. Description: BLI, sensor exposed to the highest analyte concentration, then dipped into buffer with EDTA.
For assay [6], the target named is CBS-myoglobin. Briefly: BLI, dissociation in buffer with EDTA.
Assay [7] deals with troponin inhibitory peptide-myoglobin. Description: BLI, sensor exposed to the highest analyte concentration, then dipped into buffer with EDTA.
Assay [8] has the same target. Briefly: BLI, biotinylated TAT-troponin on streptavidin sensors, troponin inhibitory peptide-myoglobin as analyte (1 µM to 63 nM), one-state association-then-dissociation fit.
The target of assay [9] is TAT-CaM (HIV; human). Description: BLI (Octet QK), biotinylated TAT-CaM on streptavidin sensors, eNOS as analyte, global 1:1 association-then-dissociation fit.

The Kd is the concentration at which binding is half-saturated. A low value points to a tighter complex. The term koff denotes the first-order rate constant of dissociation. Low readings indicate a long-lived complex, high ones a short-lived complex. What is called kon is the rate constant with which the complex forms. Lower therefore signals slower complex formation.

Sequence of CBS-HRP (P00433 31-338): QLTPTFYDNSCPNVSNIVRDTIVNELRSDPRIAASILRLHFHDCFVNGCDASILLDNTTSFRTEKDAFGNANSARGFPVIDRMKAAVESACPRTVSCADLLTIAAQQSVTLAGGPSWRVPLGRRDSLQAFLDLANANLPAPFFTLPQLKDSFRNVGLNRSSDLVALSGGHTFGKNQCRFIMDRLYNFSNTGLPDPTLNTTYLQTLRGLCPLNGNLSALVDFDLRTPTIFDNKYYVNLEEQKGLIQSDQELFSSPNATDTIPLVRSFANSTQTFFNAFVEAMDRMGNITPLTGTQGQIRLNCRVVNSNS
Sequence of endothelial nitric oxide synthase (enzyme) (P29473 2-1205): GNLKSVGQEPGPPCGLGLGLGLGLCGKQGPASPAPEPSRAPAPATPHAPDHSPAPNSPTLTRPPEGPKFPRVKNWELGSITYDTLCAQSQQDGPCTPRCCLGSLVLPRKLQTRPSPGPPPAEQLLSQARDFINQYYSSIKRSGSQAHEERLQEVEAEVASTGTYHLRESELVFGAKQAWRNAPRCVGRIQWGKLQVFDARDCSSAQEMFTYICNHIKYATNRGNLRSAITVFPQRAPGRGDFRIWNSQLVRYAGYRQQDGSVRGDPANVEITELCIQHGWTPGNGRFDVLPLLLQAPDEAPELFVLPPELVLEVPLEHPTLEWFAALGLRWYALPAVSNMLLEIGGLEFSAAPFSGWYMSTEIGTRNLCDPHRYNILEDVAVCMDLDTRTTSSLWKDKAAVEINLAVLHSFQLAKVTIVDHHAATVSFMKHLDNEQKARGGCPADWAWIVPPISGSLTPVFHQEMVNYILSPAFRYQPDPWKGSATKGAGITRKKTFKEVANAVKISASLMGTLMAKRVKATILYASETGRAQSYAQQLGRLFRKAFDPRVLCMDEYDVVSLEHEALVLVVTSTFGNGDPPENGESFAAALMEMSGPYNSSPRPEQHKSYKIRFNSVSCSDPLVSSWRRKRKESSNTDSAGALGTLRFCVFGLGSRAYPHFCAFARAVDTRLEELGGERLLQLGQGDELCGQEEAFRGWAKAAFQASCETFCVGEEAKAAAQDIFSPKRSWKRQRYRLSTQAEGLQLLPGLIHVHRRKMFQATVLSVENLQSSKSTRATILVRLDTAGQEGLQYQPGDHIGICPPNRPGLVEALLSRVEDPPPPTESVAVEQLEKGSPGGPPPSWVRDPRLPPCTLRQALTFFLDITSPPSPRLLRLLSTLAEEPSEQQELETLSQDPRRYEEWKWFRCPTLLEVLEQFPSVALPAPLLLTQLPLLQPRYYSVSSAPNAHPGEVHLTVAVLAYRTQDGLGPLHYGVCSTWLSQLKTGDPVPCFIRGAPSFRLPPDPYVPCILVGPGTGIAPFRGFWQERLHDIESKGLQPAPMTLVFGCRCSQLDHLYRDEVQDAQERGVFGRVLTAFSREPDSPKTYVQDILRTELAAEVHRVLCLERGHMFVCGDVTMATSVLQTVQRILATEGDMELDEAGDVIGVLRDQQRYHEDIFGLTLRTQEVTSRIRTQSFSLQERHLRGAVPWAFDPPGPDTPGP

On to “CBS-HRP (from UniProt P00433 31-338) (enzyme)”, for which, in the assay with TAT-CaM (HIV; human) [1], the koff (EDTA) is 0.1 s⁻¹. This substance showed a koff (EDTA) in the assay with TAT-CaM (HIV; human) [2] of 0.2 s⁻¹. Also, in the assay with TAT-CaM (HIV; human) [3], the Kd came out at 160 nM, the koff is 0.00028 s⁻¹ and the kon was 1700 M⁻¹ s⁻¹.

Substance CBS-myoglobin displayed a koff (EDTA) with TAT-CaM (HIV; human) [1] of 0.1 s⁻¹. This substance came in with a koff (EDTA) with TAT-CaM (HIV; human) [2] of 0.09 s⁻¹. In the assay with TAT-CaM (HIV; human) [3], this substance returned a Kd of 0.9 nM, a koff of 5.5e-05 s⁻¹ and a kon of 59000 M⁻¹ s⁻¹.

For CBS-β-Gal (enzyme), the koff (EDTA) with TAT-CaM (HIV; human) [1] was 0.1 s⁻¹. The koff (EDTA) with TAT-CaM (HIV; human) [2] is 0.05 s⁻¹. Moreover, in the assay with TAT-CaM (HIV; human) [3], the Kd stood at 73 nM, the koff came to 0.00067 s⁻¹ and the kon was 9200 M⁻¹ s⁻¹.

In the case of SAP(E)-CaM, in the assay with CBS-myoglobin [4], the Kd amounted to 13.3 nM, the koff was 0.00013 s⁻¹ and the kon is 9400 M⁻¹ s⁻¹. The koff (EDTA) in the assay with CBS-myoglobin [5] amounted to 0.2 s⁻¹. Also, the koff (EDTA) in the assay with CBS-myoglobin [6] was determined as 0.1 s⁻¹.

As to TAT-CaM 2.0 (from UniProt P0DP23 2-149), the kon with CBS-myoglobin [4] worked out at 4900 M⁻¹ s⁻¹. Also, the koff (EDTA) with CBS-myoglobin [5] amounted to 0.17 s⁻¹; with CBS-myoglobin [6], 0.1 s⁻¹.

For the substance “TAT-calmodulin like protein 3 (from UniProt P27482 1-149)”, in the assay with CBS-myoglobin [4], the Kd came out at 29.8 nM, the koff was determined as 0.00018 s⁻¹ and the kon amounted to 6100 M⁻¹ s⁻¹. In the assay with CBS-myoglobin [5], this substance gave a koff (EDTA) of 0.07 s⁻¹. The same substance gave a koff (EDTA) in the assay with CBS-myoglobin [6] of 0.1 s⁻¹.

With TAT-troponin, the koff (EDTA) in [7] came to 0.018 s⁻¹. The kon in [8] came to 3700 M⁻¹ s⁻¹.

In the assay with TAT-CaM (HIV; human) [9], “endothelial nitric oxide synthase (enzyme)” had a Kd of 15 nM, a koff of 0.00018 s⁻¹ and a kon of 12000 M⁻¹ s⁻¹.

The values above are taken from patent publication US20190031718A1.
